One test has as its target TREM2 R47H (human) (UniProt Q9NZC2). Kind of test: BLI; biotinylated TREM2 WT and variants immobilised on SA biosensors; C1q 62.5 – 1000 nM in PBS with 0.1% BSA and 0.005% Tween-20; 1:1 kinetic fits. In general terms: In BLI a coated tip is dipped into the sample, and binding shifts an interference pattern.
Test [1] addresses TREM2 WT (human) (UniProt Q9NZC2). The test is described as above.
A further test addresses TREM2 L71D (human) (UniProt Q9NZC2). The description is as above.
A further test has as its target TREM2 F74D (human) (UniProt Q9NZC2). Described as above.
Another test concerns the target TREM2 R62H (human) (UniProt Q9NZC2). The description is as above.
The next test concerns the target TREM2 M41D (human) (UniProt Q9NZC2). The description is as above.
The target of test [2] is TREM2 WT (human) (UniProt Q9NZC2). Kind of test: BLI; sequential competition: biotinylated TREM2 WT on SA biosensors, first ligand or no ligand at one concentration (500 nM apoE2, apoE4, oAβ42 or IL-34; 1000 nM C1q), buffer, then second ligand.
The target in test [3] is oAβ42 Aβ42 (Homo sapiens) (UniProt P05067). To be noted: cited from earlier work.
The next test addresses C1q (Homo sapiens) (UniProt P02745). Description: ELISA. To be noted: cited from earlier work. A general note: An ELISA detects its analyte on a solid surface through an enzyme-linked reagent.

TREM2, sequence (Q9NZC2 19-174): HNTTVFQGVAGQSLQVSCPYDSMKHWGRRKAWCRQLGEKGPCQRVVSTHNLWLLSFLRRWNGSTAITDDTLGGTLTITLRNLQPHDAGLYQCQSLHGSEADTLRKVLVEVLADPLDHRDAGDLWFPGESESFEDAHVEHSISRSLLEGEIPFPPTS
TREM2 WT (human), sequence (Q9NZC2 19-174): as above
TREM2 R47H (human), sequence (Q9NZC2 19-174 R47H): as the sequence (Q9NZC2 19-174) above, with R29H counted along it
TREM2 L71D (human), sequence (Q9NZC2 19-230 L71D): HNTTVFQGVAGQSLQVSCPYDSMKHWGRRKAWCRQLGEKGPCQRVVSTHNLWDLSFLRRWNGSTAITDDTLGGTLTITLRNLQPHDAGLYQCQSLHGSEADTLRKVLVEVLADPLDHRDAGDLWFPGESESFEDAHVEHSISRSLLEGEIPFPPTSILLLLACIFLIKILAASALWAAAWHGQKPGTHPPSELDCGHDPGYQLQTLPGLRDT
TREM2 F74D (human), sequence (Q9NZC2 19-230 F74D): as the sequence (Q9NZC2 19-230 L71D) above, with D53L, F56D counted along it
C1q (Homo sapiens), sequence (P02745 23-245, chain 1 of 3): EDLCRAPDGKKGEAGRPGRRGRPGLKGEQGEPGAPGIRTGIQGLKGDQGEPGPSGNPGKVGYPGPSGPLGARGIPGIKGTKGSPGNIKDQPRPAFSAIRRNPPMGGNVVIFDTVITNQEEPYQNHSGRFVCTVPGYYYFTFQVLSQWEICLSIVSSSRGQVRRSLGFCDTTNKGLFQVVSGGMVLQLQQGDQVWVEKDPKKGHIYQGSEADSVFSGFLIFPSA
C1q (Homo sapiens), sequence (P02746 28-253, chain 2 of 3, further chain): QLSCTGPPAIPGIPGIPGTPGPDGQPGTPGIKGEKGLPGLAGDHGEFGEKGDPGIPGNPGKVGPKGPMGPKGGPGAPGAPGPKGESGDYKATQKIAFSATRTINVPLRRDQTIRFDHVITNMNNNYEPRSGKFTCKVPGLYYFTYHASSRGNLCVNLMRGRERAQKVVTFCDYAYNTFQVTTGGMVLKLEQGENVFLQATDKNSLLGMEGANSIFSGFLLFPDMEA
C1q (Homo sapiens), sequence (P02747 29-245, chain 3 of 3, further chain): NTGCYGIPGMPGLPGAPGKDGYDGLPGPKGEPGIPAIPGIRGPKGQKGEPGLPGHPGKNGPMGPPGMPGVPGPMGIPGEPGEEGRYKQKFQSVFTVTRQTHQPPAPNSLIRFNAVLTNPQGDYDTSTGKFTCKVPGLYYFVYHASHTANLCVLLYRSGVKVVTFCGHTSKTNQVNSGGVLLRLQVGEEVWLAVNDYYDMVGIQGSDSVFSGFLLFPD
TREM2 M41D (human), sequence (Q9NZC2 19-230 M41D): as the sequence (Q9NZC2 19-230 L71D) above, with M23D, D53L counted along it
TREM2 R62H (human), sequence (Q9NZC2 19-174 R62H): as the sequence (Q9NZC2 19-174) above, with R44H counted along it

In general, Kd refers to the constant that tells how readily two partners part at equilibrium. Regarding complement C1q (complex), the equilibrium dissociation constant (Kd) with TREM2 R47H (human) was found to be 0.18 µM; in the test with TREM2 WT (human) [1], 0.65 µM; with TREM2 L71D (human) it was 0.058 µM; in the test with TREM2 F74D (human) it was 0.11 µM; with TREM2 R62H (human) it was 1.66 µM; with TREM2 M41D (human) it was 2.54 µM. This substance also had a percent decrease of apoE2 binding to TREM2 after pre-binding 1000 nM C1q with TREM2 WT (human) [2] of 11.4%.

TREM2 (from UniProt Q9NZC2): the results for the Kd (in test [3]; with C1q (Homo sapiens)) were 0.526 µM and 0.00735 µM, respectively.

The values above are taken from publication PMC11419269.
